{"source": "paper PMC3103431", "about": "“The four Zn fingers of MBNL1 provide a flexible platform for recognition of its RNA binding elements”", "key": {"MBNL1 (2-260) [1]": {"molecular_target": "T1, MBNL1 (2-260) (Homo sapiens, UniProt Q9NR56 2-260)", "T1 sequence": "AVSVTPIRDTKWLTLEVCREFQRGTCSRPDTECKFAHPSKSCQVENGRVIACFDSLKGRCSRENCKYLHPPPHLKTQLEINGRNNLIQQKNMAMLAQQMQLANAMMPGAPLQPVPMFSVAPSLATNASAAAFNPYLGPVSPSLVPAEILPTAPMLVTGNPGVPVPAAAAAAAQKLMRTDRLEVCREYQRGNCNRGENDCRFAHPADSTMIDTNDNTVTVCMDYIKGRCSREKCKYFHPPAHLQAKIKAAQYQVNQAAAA", "assay": "EMSA; 5 mM Mg2+; smearing; 100 mM NaCl, 21 mM Tris pH 7.5, 5 mM MgCl2, 0.1 mM EDTA, 2 mg/mL BSA, 0.1 mg/mL heparin, 0.5 mM BME, 5 mM DTT, 0.02% Triton X-100, 10% glycerol, 0.02 nM RNA, room temperature 30 min", "settings": "protein: recombinant; tags: GST tag removed; label: 5' 32P; single-stranded"}, "MBNL1 (2-260) [2]": {"molecular_target": "T1, MBNL1 (2-260)", "assay": "EMSA; 5 mM Mg2+; 100 mM NaCl, 21 mM Tris pH 7.5, 5 mM MgCl2, 0.1 mM EDTA, 2 mg/mL BSA, 0.1 mg/mL heparin, 0.5 mM BME, 5 mM DTT, 0.02% Triton X-100, 10% glycerol, 0.02 nM RNA, room temperature 30 min", "settings": "protein: recombinant; tags: GST tag removed; label: 5' 32P; single-stranded"}, "MBNL1 (2-260) [3]": {"molecular_target": "T1, MBNL1 (2-260)", "assay": "EMSA; 5 mM Mg2+; range for 2, 3 and 4 GC RNAs; 100 mM NaCl, 21 mM Tris pH 7.5, 5 mM MgCl2, 0.1 mM EDTA, 2 mg/mL BSA, 0.1 mg/mL heparin, 0.5 mM BME, 5 mM DTT, 0.02% Triton X-100, 10% glycerol, 0.02 nM RNA, room temperature 30 min", "settings": "protein: recombinant; tags: GST tag removed; label: 5' 32P; single-stranded"}, "MBNL1 (2-260) [4]": {"molecular_target": "T1, MBNL1 (2-260)", "assay": "EMSA; 5 mM Mg2+; 100 mM NaCl, 21 mM Tris pH 7.5, 5 mM MgCl2, 0.1 mM EDTA, 2 mg/mL BSA, 0.1 mg/mL heparin, 0.5 mM BME, 5 mM DTT, 0.02% Triton X-100, 10% glycerol, 0.02 nM RNA, room temperature 30 min", "settings": "protein: recombinant; tags: GST tag removed; label: 5' 32P; single-stranded", "remark": "listed apart in the source"}, "MBNL1 (2-260) [5]": {"molecular_target": "T1, MBNL1 (2-260)", "assay": "EMSA; 5 mM Mg2+; 100 mM NaCl, 21 mM Tris pH 7.5, 5 mM MgCl2, 0.1 mM EDTA, 2 mg/mL BSA, 0.1 mg/mL heparin, 0.5 mM BME, 5 mM DTT, 0.02% Triton X-100, 10% glycerol, 0.02 nM RNA, room temperature 30 min", "settings": "protein: recombinant, tags: GST tag removed, label: 5' 32P"}, "MBNL1 (2-260) [6]": {"molecular_target": "T1, MBNL1 (2-260)", "assay": "EMSA; 5 mM Mg2+; wild type level; 100 mM NaCl, 21 mM Tris pH 7.5, 5 mM MgCl2, 0.1 mM EDTA, 2 mg/mL BSA, 0.1 mg/mL heparin, 0.5 mM BME, 5 mM DTT, 0.02% Triton X-100, 10% glycerol, 0.02 nM RNA, room temperature 30 min", "settings": "protein: recombinant; tags: GST tag removed; label: 5' 32P; single-stranded"}, "MBNL1 (2-260) [7]": {"molecular_target": "T1, MBNL1 (2-260)", "assay": "EMSA; 5 mM Mg2+; smearing; 100 mM NaCl, 21 mM Tris pH 7.5, 5 mM MgCl2, 0.1 mM EDTA, 2 mg/mL BSA, 0.1 mg/mL heparin, 0.5 mM BME, 5 mM DTT, 0.02% Triton X-100, 10% glycerol, 0.02 nM RNA, room temperature 30 min", "settings": "protein: recombinant; tags: GST tag removed; label: 5' 32P; single-stranded", "remark": "listed apart in the source"}, "MBNL1 (2-260) [8]": {"molecular_target": "T1, MBNL1 (2-260)", "assay": "competition; vs 32P-2GC 0.02 nM, 33.3 nM MBNL1; 100 mM NaCl, 21 mM Tris pH 7.5, 5 mM MgCl2, 0.1 mM EDTA, 2 mg/mL BSA, 0.1 mg/mL heparin, 0.5 mM BME, 5 mM DTT, 0.02% Triton X-100, 10% glycerol, 0.02 nM RNA, room temperature 30 min", "settings": "protein: recombinant; tags: GST tag removed; label: 5' 32P; single-stranded"}}, "data": [{"binder": "UCCUUUUUUUUUCCUGCUUUUUUUUUCCU (ssRNA)", "note": "[1GC#2]", "values": [{"measurement": "binding signal", "setting": "MBNL1 (2-260) [1]", "value": "~5 fold higher Kd than the 2-4 GC 29-nt RNAs"}]}, {"binder": "UUUGCUUUUUUUUUUUUUGCUUU (ssRNA)", "note": "[2GC]", "values": [{"measurement": "Kd", "setting": "MBNL1 (2-260) [2]", "value": 11, "unit": "nM"}]}, {"binder": "UGCUUUUUUUUUGCUGCUUUUUUUUUGCU (ssRNA)", "note": "[4GC]", "values": [{"measurement": "Kd", "setting": "MBNL1 (2-260) [3]", "value": 3.16, "unit": "nM"}]}, {"binder": "CCCGCCCCCCCCCCCCCCGCCCC (ssRNA)", "note": "[C]", "values": [{"measurement": "Kd", "setting": "MBNL1 (2-260) [2]", "value": 111, "unit": "nM"}]}, {"binder": "AAUGCUAAAAAAAAAAAUGCUAA (ssRNA)", "note": "[A4]", "values": [{"measurement": "binding signal", "setting": "MBNL1 (2-260) [4]", "value": "> 10", "unit": "fold weaker than 2GC"}]}, {"binder": "UUGGCGUUUUUUUUUUUGGCGUU (ssRNA)", "note": "[GGCG]", "values": [{"measurement": "binding signal", "setting": "MBNL1 (2-260) [5]", "value": 40, "unit": "fold weaker than 2GC"}]}, {"binder": "UUCGCCUUUUUUUUUUUCGCCUU (ssRNA)", "note": "[CGCC]", "values": [{"measurement": "Kd", "setting": "MBNL1 (2-260) [2]", "value": 7, "unit": "nM"}]}, {"binder": "CCUGCUCCCCCCCCCCCUGCUCC (ssRNA)", "note": "[C4]", "values": [{"measurement": "binding result", "setting": "MBNL1 (2-260) [6]", "value": "binds"}]}, {"binder": "UUAGCAUUUUUUUUUUUAGCAUU (ssRNA)", "note": "[AGCA]", "values": [{"measurement": "binding signal", "setting": "MBNL1 (2-260) [5]; single-stranded", "value": 5, "unit": "fold weaker than 2GC"}]}, {"binder": "UUUGCUUUUUUUUUUUUUUUUUU (ssRNA)", "note": "[1GC]", "values": [{"measurement": "Kd", "setting": "MBNL1 (2-260) [7]", "value": 45, "unit": "nM"}, {"measurement": "binding signal", "setting": "MBNL1 (2-260) [8]", "value": 15, "unit": "fold weaker than 2GC"}]}]}
